Source: the supplement of paper PMC10567573

B1: PTPRD (parent)
chain: LTKLREMGREKCHQYWPAERSARY
B2: SLC19A2 (parent)
chain: IYPVWTYSYLVLLFPVFLATDYLR

Variants of: B1
Assay: protein stability index of a GFP-peptide fusion (GPS, HEK-293T) (PSI 1-6); higher = more stable
Conditions: c terminus: a fixed tail appended
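Also: lentivirally expressed fusions sorted by FACS into six bins by GFP to DsRed ratio, PSI derived from sequencing read proportions per bin multiplied by bin number.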

First: LTKLREMGREKCHQYWMAERSARY
Second: LTKLREMGREKCHQYWTAERSARY
The protein stability index of the first is lower: 1.97 for the first, 2.32 for the second.

Compared with LTKLREMGREKRHQYWPAERSARY, LTKLREMGREKTHQYWPAERSARY is higher in protein stability index: 2.51 for the first, 3.38 for the second.

Going from LTTLREMGREKCHQYWPAERSARY to LTKLREMGIEKCHQYWPAERSARY, the protein stability index falls from 2.63 to 2.29.

Going from LTKLREMGQEKCHQYWPAERSARY to LTKLREMGREKCHQYWPAEVSARY, the protein stability index falls from 3.05 to 2.03.

Compared with LTKLREMGREKCHQYWPAECSARY, LTKLREMGREWCHQYWPAERSARY is lower in protein stability index: 2.42 for the first, 1.89 for the second.

First: LTKLREMGREFCHQYWPAERSARY
Second: LTKLREMGRETCHQYWPAERSARY
The protein stability index of the first is lower: 2.14 for the first, 2.5 for the second.

First: CTKLREMGREKCHQYWPAERSARY
Second: LTKLREMGREKCHQYWPAERSSRY
The protein stability index of the first is higher: 2.42 for the first, 2.16 for the second.

Compared with LTKLREMGREKCHQYWPAERSHRY, LTKLREQGREKCHQYWPAERSARY is higher in protein stability index: 2.21 for the first, 2.56 for the second.

Going from LTKLRETGREKCHQYWPAERSARY to LTKLRENGREKCHQYWPAERSARY, the protein stability index rises from 2.71 to 2.77.

Compared with LTKLREFGREKCHQYWPAERSARY, LTKLREGGREKCHQYWPAERSARY is higher in protein stability index: 2.41 for the first, 2.64 for the second.

Going from LTKLREMIREKCHQYWPAERSARY to LAKLREMGREKCHQYWPAERSARY, the protein stability index rises from 1.29 to 2.69.

Going from LWKLREMGREKCHQYWPAERSARY to LCKLREMGREKCHQYWPAERSARY, the protein stability index rises from 1.78 to 1.82.

First: LDKLREMGREKCHQYWPAERSARY
Second: LTKLREMGREKCHQYWPAERSARK
The protein stability index of the first is lower: 2.83 for the first, 3.02 for the second.

Compared with LTKLREMGREKCHQYWPARRSARY, LTKLREMGREKCHQYWPACRSARY is lower in protein stability index: 2.56 for the first, 2.21 for the second.

Compared with LTKLREMGRKKCHQYWPAERSARY, LTKLREMGRNKCHQYWPAERSARY is higher in protein stability index: 2.03 for the first, 2.46 for the second.

Going from LTKLWEMGREKCHQYWPAERSARY to LTKLEEMGREKCHQYWPAERSARY, the protein stability index rises from 2.24 to 3.16.

Compared with LTKNREMGREKCHQYWPAERSARY, LTKLREMGREKCHQYNPAERSARY is higher in protein stability index: 3.04 for the first, 3.5 for the second.

Going from LTKLREMGREKCHQYKPAERSARY to LTKLREMGREKCHQYYPAERSARY, the protein stability index falls from 3.03 to 2.58.

Going from LTKLREMGREKCHQYGPAERSARY to LTKLREMGREKCHQYWPAERSANY, the protein stability index falls from 3.25 to 2.24.

Compared with LTKLREMGREKCHQYWPAERSAYY, LTKLREMGREKCHQYWPAERSASY is higher in protein stability index: 1.6 for the first, 1.96 for the second.

First: LTKLREMGREKCHQYWPAERSAGY
Second: LTKLREMGREKCHQYWPAERSAWY
The protein stability index of the first is higher: 2.38 for the first, 1.68 for the second.

First: LTKLREMGREKCHQYWPAERQARY
Second: LTKLREMGREKCHQYWPAERVARY
The protein stability index of the first is lower: 2.08 for the first, 2.17 for the second.

First: LTKLREMGREKCHQYWPAERRARY
Second: LTKLREMGREKCHQYWPAERHARY
The protein stability index of the first is higher: 2.16 for the first, 1.91 for the second.

Variants of: B2
Assay: as above
Conditions: c terminus: a fixed tail appended

First: IYPVWTYSYLFLLFPVFLATDYLR
Second: IYKVWTYSYLVLLFPVFLATDYLR
The protein stability index of the first is higher: 2.34 for the first, 2.02 for the second.

Compared with IYPVWTYSYLVLLFPVFLTTDYLR, IYPVWTYSYLVLLFPVFLATDYMR is higher in protein stability index: 1.57 for the first, 3.02 for the second.

Compared with IYPVWTYSYLVLLFPVFLATDYKR, IYPVWTYSLLVLLFPVFLATDYLR is higher in protein stability index: 2.22 for the first, 2.46 for the second.

Going from IYPVWTYSMLVLLFPVFLATDYLR to IYPVWTYSDLVLLFPVFLATDYLR, the protein stability index rises from 2.97 to 3.8.

Compared with IYPVWTYSYLVLLFPVFCATDYLR, IYPVWTYSYLVLLFPVFHATDYLR is higher in protein stability index: 3.04 for the first, 3.99 for the second.

First: IYPVWTYSYLVLLFPVFAATDYLR
Second: IYPVWTYSYLVLLFPVFSATDYLR
The protein stability index of the first is lower: 2.5 for the first, 3.42 for the second.

First: IYPVWTYSYLVLLFPVFLATDWLR
Second: IYPVWTYSYLVLLFPVFLATDRLR
The protein stability index of the first is higher: 2.78 for the first, 1.75 for the second.

First: IYPVWTYSYLVLLFPVFLATDQLR
Second: IYPVWTYSYLVLLPPVFLATDYLR
The protein stability index of the first is lower: 1.98 for the first, 2.48 for the second.

First: IYPVWTYSYLVLLMPVFLATDYLR
Second: IYPVWTYSYLVLLCPVFLATDYLR
The protein stability index of the first is higher: 4.1 for the first, 2.63 for the second.

Going from IYPVWTYSYLVLLFPVFLAFDYLR to IYPVWTYSYLVLLFPVFLASDYLR, the protein stability index falls from 2.44 to 2.33.

First: IYPVWTYSYLVLLFPVFLAEDYLR
Second: IYPVWTYSYLVLLFPVWLATDYLR
The protein stability index of the first is lower: 1.62 for the first, 2.19 for the second.

Compared with IYPVWTYSYLVLLFPIFLATDYLR, IYPVWTYSYLVLLFPPFLATDYLR is lower in protein stability index: 3.52 for the first, 2.42 for the second.

First: IYPVWTYSYLVLLFPNFLATDYLR
Second: IYPVWTYSYLVLLFPYFLATDYLR
The protein stability index of the first is higher: 2.79 for the first, 2.34 for the second.

Compared with IYPVWTYSYVVLLFPVFLATDYLR, IYPVWTYSYKVLLFPVFLATDYLR is lower in protein stability index: 3.74 for the first, 1.93 for the second.

First: IYPVWTYSYRVLLFPVFLATDYLR
Second: IYPVWTYSYLVYLFPVFLATDYLR
The protein stability index of the first is higher: 2.9 for the first, 2.31 for the second.

Compared with IYPVWTYSYLVKLFPVFLATDYLR, IYPVWTYSYLVLLFLVFLATDYLR is lower in protein stability index: 3.56 for the first, 2.41 for the second.

First: IYPVWTYSYLVLLFFVFLATDYLR
Second: IYPVWTYSYLVLLFPVFLATDYLE
The protein stability index of the first is higher: 2.95 for the first, 1.91 for the second.

Compared with IYPVWTYSYLVLLFPVFLATDYLH, IYPVWTMSYLVLLFPVFLATDYLR is lower in protein stability index: 2.63 for the first, 2.32 for the second.

Compared with IYPVWTYIYLVLLFPVFLATDYLR, IYPVWTYDYLVLLFPVFLATDYLR is higher in protein stability index: 2.41 for the first, 3.67 for the second.

Going from IYPVSTYSYLVLLFPVFLATDYLR to IYPVRTYSYLVLLFPVFLATDYLR, the protein stability index rises from 2.89 to 3.39.

Going from IYPVGTYSYLVLLFPVFLATDYLR to IYPVATYSYLVLLFPVFLATDYLR, the protein stability index falls from 4.5 to 3.28.

Going from IYPVPTYSYLVLLFPVFLATDYLR to ITPVWTYSYLVLLFPVFLATDYLR, the protein stability index rises from 3.19 to 4.06.

First: AYPVWTYSYLVLLFPVFLATDYLR
Second: HYPVWTYSYLVLLFPVFLATDYLR
The protein stability index of the first is lower: 2.12 for the first, 4.44 for the second.

Compared with GYPVWTYSYLVLLFPVFLATDYLR, MYPVWTYSYLVLLFPVFLATDYLR is lower in protein stability index: 2.67 for the first, 2.3 for the second.
